Measured values: PMC12135134

Biological target: recombinant human IgG1 Fc fragment (recFc), residues 236–444 of the rituximab heavy chain, non-glycosylated homodimer (human)
Experiment: crystal structure; co-crystal of the complex isolated by SEC after mixing affitin and Fc chain 4:1; hanging drop, 20 °C, 24% w/v PEG8000, 0.1 M Tris/HCl pH 8.5; space group P2_(1), 2.90 Å

Substance: recombinant human IgG1 Fc fragment (recFc), residues 236–444 of the rituximab heavy chain, non-glycosylated homodimer (domain or fragment)
- stoichiometry N (chains in the oligomer): 2
